# According to the nanobody polyreactivity screen of Harvey et al. (2022):
# Experiment: yeast display, Sf9 membrane polyspecificity reagent, FACS + sequencing; frameworks hold sequencing errors
# Method in brief: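 Synthetic nanobody libraries on Saccharomyces cerevisiae BJ5465 were galactose-induced for 36–48 hours, stained 1 hour at 4 °C with 10% biotinylated, detergent-solubilized Sf9 membrane reagent and enriched on streptavidin microbeads. FACS then separated cells into low and high (top ~1%) gates by anti-HA (expression) and streptavidin (reagent binding) fluorescence. Genes were colony-PCR amplified, MiSeq 2 × 250 sequenced and CDR-length filtered. A clone's polyreactivity label is that of its gate of origin.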
row,Sequence,polyreactivity (PSR sort gate)
1,QVQLVESGGGLVQAGGSLRLSCAASGRIFWDNAMGWYRQAPVKERELVAAISGGASTYADSVKGRFTISRDNAKNTVYLQMNSLKAEDTSVYYCYAFQSPVEEEYYWGQGTQVTVSS,low polyreactivity
2,QDQLVESGGGLVQAGGSLRLSCAAYGRIFRANVMGWYRQAPGKERELVAAINWSGGSTYYADSVKGRFTISRDIAKNTVYLQMNSLKPEDTAVYYCAAAYKWFGEGRFYYWGQGTQVTVSS,high polyreactivity
3,QVQLVESGGGLVQAGGSLRLSCAASGGTFRYNAMGWYRQAPGKERELVAAISRSGGSTHYADSVKGRFTISRDNAKNTVYLQMNSLKPEDTAVYYCAATVTFVPSRAGFYKYNYWGQGTQVTVSS,high polyreactivity
4,QVQLVESGGGLVQAGGSLRLSCAASGRTFTYNTMGWYRQAPGKERELVAAISSSGGSTYYADSVKGRFTISRDNAKNTVYLKMNCLKPEDTAVYYCAKRYFSSSRYYYWGQGTKVTVSS,high polyreactivity
5,QVQLVESGGGLVQAGGSLRLSCAASGFIFRDNAMGWYRQAHGKERELVASIRSSGGRTYYADSVKGRFTISRDNAKNTVYLQMNSLKPEDTAVYYCARRWYPVTPYARMYYWGQGTQVTVSS,low polyreactivity
6,QVQLVESGGGLVQAGGSLRLSCAASGSTFYYYAMGWYRQAPGKERELVAVITFSGGSTNYADSVKGRFTISRDNAKNTVYLQMNSLKPEDTAVYYCAADTYSYRYSNDYWGQGTQVTVSS,low polyreactivity
7,QVQLVESGGGLVQAGGSLRLSCAASGSIFRVYAMGWYRQAPGKERELVAGITGRGGSTYYADSVKGRFTISRDNAKNTVYLQMNSLKPEDTAVYYCNRRYRYGRDYWGQGTQVTVSS,high polyreactivity
8,QGQLVESGGGLVQAGGSLRLSCAASGRIFGHYAMGWYRQAPGKERELVAAIRWRGGSTYYADSVKGRFTISRDNAKNTVYLQMNSLKPEDTAVYYCARTNNGRFRIVDTRYDYWGQGNQVTVSS,low polyreactivity
9,QVQLVESGGGLVQAGGSLRLSCAASGRIFGPYAMGWYRQAPGKERELVAASSTDYADSVKGRFTISRDNAKNTVYLQMNSLKPEDTAVYYCAKVGFGIPGGFYYWGQGTQVTVSS,low polyreactivity
10,QVQLVESGGGLVQAGGSLRLSCAASGIIIDRYAMGWYRQAPGKERELVAAISWSGGRTYYADSVKGRFTISRDNAKNTVYLQMNSLKPEDTAVYYCAAKPSVDLDYWGQGTQVTVSS,high polyreactivity
11,QVQLVESGGGLVQAGGSLRLSCAASGSTFGYNAMGWYRQAPGKERELVAAIRRSGGSTYYADSVKGRFTISRDNAKNTVYLQMNSLKPEDTAVYYCAAAGGKRHEYWGQGTQVTVSS,high polyreactivity
12,QVQLVESGGGLVQAGGSLRLSCADSGNTFYGYAMGWSRQSPGTERELVASITLSGDSTYYADSVKGRFTISRDNAKNTVYLQMNSLKPEDTAVYYCAGVYTYPLGYYHYTYDYWGQGTQVTVSS,low polyreactivity
13,QVQLVESGGGLVQAGGSLRLSCAASGLTFLNKAMGWYREAPGKERELVAAISRGGSTNYADSVKGRFTISRDNAKNTVYLQMNSLKPQDTAGYYCAAQIFESAYGMDYWGQGTQVTVSS,low polyreactivity
14,QVQLVESGGGLVQAGGSLRLSCAASGYTLGTYAMGWYRQAPGKERELVAAITWSGGRTNYADSVKGRFTISRDNAKNTVYLQMNSLKPEDTAVYYCAARYYFPFRRFRRMDYWGQGTQVTVSS,high polyreactivity
15,QVQLVESGGGLVQAGGSLRLSCAASGFTFGLYAMGWYRQAPGKERELVAAISSDGSTYYTDSVKGRFTISRDNAKNTVYLQMNSLKPEDTSVYYCNRDYPQSLPYYTNTILYGYWGQGTQVTVSS,low polyreactivity
16,QVQLVESGGGLVQAGGSLRLSCAASGSTFVSYAMGGSRQAPGKERELVAAISRSGGSTYYADSVKGRFTISRDTAKNTVYLQMNSLKPEDTAGYYCAADGRGPSKRNRDYWGQGTQVTVSS,high polyreactivity
17,QVQRVESGGGLVQARGSLRLSCAASGLIFPPNVMGWYRQAPGKESEFVAAITSSGSTNYADSVKGRFTISRDNAKYTVYIQMNSLKPEDTAVYYCARDQTWSYQPWYYLSYPQYEYWGQGTEVTVSS,low polyreactivity
18,QVQLVESGGGLVQAGGSLRLSCAASGRTFQWYAMGWYRQAPGKERELVAAISYNGDSTYYADSVKGRFTISRDNAKNTVYLQMNSLKPEDTAVYYCAATPYPYYGYDYWGQGTQVTVSS,high polyreactivity
19,QVQLVESGGGLVQAGGSLRLSCAASGRTFWGYGMGWYRQAPGKERELVATISSGGSTYYADSVKGRFTISRDNAKNTVYLQMNSLKPEDTAVYYCAARPPRTYWRYQSDYWGQGTQLTVSS,high polyreactivity
20,QFQLVESGGGLVQAGGSLRLSCAASGRIFYSYAMGWYRQAPGKERELVAAISRSGTSTFYADSLKGRFTISRDNAKNTVYLQMNSLKPEDTAVYYCNAVISPYVIRSEYWGQGTQVTVSS,low polyreactivity
21,QVQLVESGGCLVQAGGSLRLSCAASGFTFSSNAMGWYRQAPGKERELVAAISFNSTSTYYADSVKGRFTISRDNAKNTVYLQMNSLKPEDTAVYYCAADVPRVQSEPEYDYWGQGTQVTVSS,low polyreactivity
22,QVQLVESGVGLVQAGGSLRLSCAASGSIFEVYAMGWYRQAPGKEREFVATLSGSGGSTYYADSVKGRFTISRDNAKNTVYLQMNSLKPEDTAVYYCAASIAWYSSFVITCYYWGQGTQVTVSS,low polyreactivity
23,QVQLVESGGGLVQAGGSLRLSCAASGNTFNSYAMGWYRQAPGKEREFVAAISGSGSSTYYADSVKGRFTISRDNAKNTVYLQMNSLKPEDTAVYYCAARWRYYGSFDYWGQGTQVTVSS,high polyreactivity
24,QVQRVESGGGLVQAGGSLRLSCAASGITFYPYTMGWYRQAPGKQRELVAAISSSGGSTNYADSVKGRFTISRDNAKNSDYLQMISLKPDDSAVYYCAKRYAGNASSDGDSWGQGTQVTVSS,low polyreactivity
25,QVQLVESGGGLVQAGGSLRLSCAASGRTFVYYAMGWYRQAPGKERELVASISSVGTTKYADSVKGRFTISRDNAKNTVYLQMNSLKPEDTAVYYCAAVPLSRNIFDSWGQGTQVTVSS,low polyreactivity
26,QVQLVESGGGLVQAGGSLRLSCAASGSTFGYYGMGRYRQAPGKERELVASIDSRGDSTYADSVKGRFTISRDNAKNTVYLQMNSLKPEDTSVYYCADDSWYTWFDSWGQGTQVTVSS,low polyreactivity
27,QVQLVESGGGLVQAGGSLRLSCAASGLIFTGYVMGWYRQAPGKERELVAVIRSGDSTYYADSVKGRFTISRDNAKNTVYLQMNSLKPEDTAVYYCAKYDTGGRAHDYWGQGTQVTVSS,low polyreactivity
28,QVQLVESGGGLVQAGGSLRLSCAASGRILVGYAMGRYRQAPGKERELVAAINRSGSSTYYADSVKGRFTISRDNAKNTVYLQRNSLNPEDTAVYYCNAPSGNRYGPRYDYWGQGTQVTVSS,high polyreactivity
29,QVQLVESGGVLVQAGGSLRLSCAASGRTFLNYTMGWYRQAPRKDIELVAAISTSGGSTNYADSVKGRFTISRDNAKNTVYLQMTSLKPEDTAVYYCAAETSTKPEAYEYWGQGTQVTVSS,low polyreactivity
30,QVQLVESGGGIVQAGGSLRLSCAASGMGWYRQAPGKERELVADITSRGGSTYYADSVKGRFTISRDNAKITVYLQMNSLKPEDTAVSYCAARKRVVQFDYWGQGTQVTVSS,low polyreactivity
